Assay results as given in the DeepSol protein solubility set.

Assay: soluble on expression in E. coli; label from the status in PepcDB or PDB records
For “MGSDKIHHHHHHMEEYIRRILTLGRKRLEKFALKGGKPLPERPLIVKLMEEIRGFLGSGENRVILLYGLRGVGKTTMLAQLYLKLIGEVSGERILYASVDEIKMLGYRLKDVFESYEHIIGERLEELREPTIFLLDEVHYDEEWDLALKVAYDRARNLMIVATGSSAIELKLSTDLARRAKRFHITPLTFTEYLLLKGIRVNEEVKKVLKRLLLAGEVEGIEEEIRKTFLTFDPIEVERYLLYGSLPLALSSREPLEETYSIVERIIRWDLAKMGFSQEVLEKAFLLMLMLASGEALNYDRLTSRLGISRPVLAKLLSAFENLEVIFPVRAYGSLGKAIRKTPKYKFLAPVIRTSILNHFGLLEVNEKILGNLLEDVVALYLYIIARELSGSVTYDAEKGGADFILTTPIGRIVLEVGWGKKGKEQVKRTMKKIGAERGIIIHGGDFREKNGVIWLPKEWFLLML”, the “soluble on expression in E. coli” value was “not soluble”. In the case of “MHHHHHHSSGVDLGTENLYFQSNAMANPLYHKHIISINDLSRDELELVLRTAASLKKTPQPELLKHKVIASCFFEASTRTRLSFETSIHRLGASVVGFSDSSNTSLGKKGETLADTMSVISTYVDAIVMRHPQEGASRLAAQFSGNVPIVNAGDGANQHPTQTLLDLFTIQETQGRLDNINIAMVGDLKYGRTVHSLTQALAKFNGNHFFFIAPDALAMPAYILQMLEEKEIEYSLHESLEEVVPELDILYMTRVQKERLDPSEYANVKAQFILRSSDLTGARDNLKVLHPLPRIDEITTDVDKTPYAYYFQQAGNGIFARQALLALVLNAELAL”, the “soluble on expression in E. coli” value was “soluble”. For “GSGIMAASRPLSRFWEWGKNIVCVGRNYADHVREMRSAVLSEPVLFLKPSTAYAPEGSPILMPAYTRNLHHELELGVVMGKRCRAVPEAAAMDYVGGYALCLDMTARDVQDECKKKGLPWTLAKSFTASCPVSAFVPKEKIPDPHKLKLWLKVNGELRQEGETSSMIFSIPYIISYVSKIITLEEGDIILTGTPKGVGPVKENDEIEAGIHGLVSMTFKVEKPEY”, the “soluble on expression in E. coli” value was “soluble”. With “MSLLNQKIQNPNPDELMIEVDLCYELDPYELKLDEMIEAEPEPEMIEGLPASDALTPADRYLELFEHVQSAKIFPDSKTFPDCAPKMDPLDILIRYRKVRRHRDFDLRKFVENHFWLPEVYSSEYVSDPQNSLKEHIDQLWPVLTREPQDHIPWSSLLALPQSYIVPGGRFSETYYWDSYFTMLGLAESGREDLLKCMADNFAWMIENYGHIPNGNRTYYLSRSQPPVFALMVELFEEDGVRGARRYLDHLKMEYAFWMDGAESLIPNQAYRHVVRMPDGSLLNRYWDDRDTPRDESWLEDVETAKHSGRPPNEVYRDLRAGAASGWDYSSRWLRDTGRLASIRTTQFIPIDLNAFLFKLESAIANISALKGEKETEALFRQKASARRDAVNRYLWDDENGIYRDYDWRREQLALFSAAAIVPLYVGMANHEQADRLANAVRSRLLTPGGILASEYETGEQWDKPNGWAPLQWMAIQGFKMYGDDLLGDEIARSWLKTVNQFYLEQHKLIEKYHIADGVPREGGGGEYPLQDGFGWTNGVVRRLIGLYGEPEGGSHHHHHH” the “soluble on expression in E. coli” value was “soluble”. With “MGSDKIHHHHHHMSSHHETSENVVIKQADFIESVADALQYISYYHPKDFVDAMSEAYEREQSAAAKDAIAQILINSRMSAEGKRPLCQDTGIVTTFVKVGMGVKWDKTDMTIQQMVDEGVRRAYTNPDNPLRASIVADPAGSRKNTKDNTPSVVHIDMVPGNHVEVAIAAKGGGSENKAKMVMLNPSDDIAAWVEKTLPTMGAGWCPPGMLGIGIGGTAEKAAVLAKEALMESVDIHELMARGAQTTEEKLRLDIFERANNLGIGAQGLGGLTTVLDVKIKSAPTHAASKPVVMIPNCAATRHVHFHLDGTGPADLAPPSLSDWPEITREVGSDVRRVNLDTVTQADIEQWQSGETLLLSGKMLTGRDAAHKRIQSLIESGEGLPEGVDFTGKFIYYVGPVDPVGNEVVGPAGPTTATRMDKFTDLMLDKTGLMGMIGKAERGPATVESIKKHKAVYLMAVGGAAYLVSKAIKKSRVVAFADLGMEAIYEFDVQDMPVTVAVDSNGVNAHETGPAIWKVNIANANAKA” the “soluble on expression in E. coli” value was “not soluble”. For “MGSDKIHHHHHHMMISLYSAATGMSAQQFKLDTIANNLANVDTTGYKKVRAEFQDLLYQYVKNAGTPTAATSSLPTGLYVGHGVRTAATTRIFTLGNFEQTGNALDLAIAGDGFFQIQLQDGRIAYTRDGSFKMDSEGRIVTSNGLLLVPEITIPENAVSINVSPDGIVSAELQDGTIQELGTITLVRFVNPSGLKSIGDNLYIATPASGDPIEGVPGQDGFGAIKQGFLEKSNVDVVREMVDMITAQRAYEFNSRVIQTADEMLRTATNVKR”, the “soluble on expression in E. coli” value was “not soluble”. For “MTTTTTVRQCRVTRIGSTELPPRVENAIQFLDDQCYEKLGGTVVMKWFGNRVPPEDHRQLSSFCHVVNLTKYDDDPKSRYHKDDIECACGTSSNLFFLKKFNEAVEKYPCDDDETITKAPTTEPSDDLWCWQLRSRSFASSPPPPRMKNAIQLLDDKCYAKLGGTTVMKWFGNVVTPEGKVCFVINLTDSKMKLYKKEIVCACGRQSYVFFLEGLILMREKYSCNDKTTTKSTRTTPSTTTAKQCYVRRTGSSVSPPRETDAIPMLDDQCYEKMGGTSVMDRFGNREPPKSVYEYSEFCLLVDVTLNGPAMETYQSDIECVCGISSLEFFLEKFEEAIKKYPCDNDGATEAATTKPTTTTVTTTTVPPKTDPPRTEPPKTEPPTTEPPKIEPPRTEPPKTEPPPTEPPKTEPPKTTPPKTEPPTTEPPNIPYCWQQQSRLFAPSPPPPRVNNTMPLIEDKCYAKLGDTLVMAWFGNRAPPKNFTEVLDFCTVAALTYNNESAVFSVFKKDIQCNCDKLSFSRFLKKLSEAMEKYQCNNVWTRTEAPETVTTRTEPPRTEPPRTIPPRTEAPRTEPPRTEPPKTEAPRTVRPKTEAPMTVPPRTEPPMTEAPRTEVPMTEPPKTEPPRTAPPRTEVSMTLPPETVPPNTEAPRTEVPMTVPPRTEPPKTEAPRTVPPKTEAPMTEVPMTGPSRTEVPMTEPPKTEQPRTAPPRTEVSMTLPPETVPPKTEAPRTEVPMTGPSRTEVPMTVTPETGLSSTVTSKTEPPKTTTEKRITPRTEVPKTVPPRTGPPMTVPPGTEAPTTEAPMTITPRTEQLRTEQLRTDQSKTVTPKTKITVWPTDYRGPI”, the “soluble on expression in E. coli” value was “not soluble”. For “QAAELEITVTNATKGIYFTPLIVAAHDSDLHMFKVGESATAELEAMAEGGDISGLSTVIGNAGGAVVENPAGGILNPGAATTFTLDSGDHG”, the “soluble on expression in E. coli” value was “not soluble”. In the case of “MGSDKIHHHHHHMGIYRTQLPQLDGGVFLTDGGIETTLIFHEGFELPYFAAFELLKTPQGRDALTHYFVTYVKLAGLFDTGFILESPTWRASSDWGALLGYTKETLAQANREAIALLEVIREAHSGRLPVVVSGCIGPRFDGYLPDKSMTAEDARHYHSIQIETLASTSADMICALTLNRVEEAIGIVEAAREAAMPVVISFTLETDGRLPTGQSLGDAVVQVDEATAGYAAYFMINCAHPSHLETVPQDAPWLARVKGFRANASSLSHAELNDATTLDDGDPHQLGQQYASLMSTRLKGLNVLGGCCGTDHRHLEQIAKACIKPR”, the “soluble on expression in E. coli” value was “not soluble”. With “MGSSHHHHHSSGENLYFQGHMKHGIYYSYWEHEWSAKFGPYIEKVAKLGFDIIEVAAHHINEYSDAELATIRKSAKDNGIILTAGIGPSKTKNLSSEDAAVRAAGKAFFERTLSNVAKLDIHTIGGALHSYWPIDYSQPVDKAGDYARGVEGINGIADFANDLGINLCIEVLNRFENHVLNTAAEGVAFVKDVGKNNVKVMLDTFHMNIEEDSFGDAIRTAGPLLGHFHTGESNRRVPGKGRMPWHEIGLALRDINYTGAVIMEPFVKTGGTIGSDIKVWRDLSGGADIAKMDEDARNALAFSRFVLGG” the “soluble on expression in E. coli” value was “soluble”. For “MGKTIAEKIFASHLVDEPFAGTKVLRLDVVMCHEITTPIAIADLMARGKDRVFDPTKIKAVIDHVTPSKDSKTATQAKMLRDWARRHGIVDFFDVGANGVCHALFPEKGFIRPGYTVIMGDSHTCTHGAFGAFAAGIGTTDLEVGILKGVCAFREPKT”, the “soluble on expression in E. coli” value was “not soluble”.
